From the supplement of paper PMC11136658

Test system: peptide library, one residue held at a place counted from the Y acceptor
Test: relative phosphorylation of the sub-library (ratio to the mean residue at this position); higher = residue favoured
Method in brief: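 In 384-well plates, purified recombinant kinases were incubated for 90 min with 50 μM ATP containing γ-32P-ATP and biotinylated Tyr-centred peptide libraries, each mixture fixing one residue at a single position between −5 and +5. After capture on streptavidin membranes and rinsing, peptides were quantified by phosphorimaging with ImageQuant. Per-position intensities were scaled to the sum of the 18 (Ser/Thr-free library: 16) randomized residues, then multiplied by that number.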

Chain of MUSK, construct: aa529-end, human (O15146 529-869, looked up): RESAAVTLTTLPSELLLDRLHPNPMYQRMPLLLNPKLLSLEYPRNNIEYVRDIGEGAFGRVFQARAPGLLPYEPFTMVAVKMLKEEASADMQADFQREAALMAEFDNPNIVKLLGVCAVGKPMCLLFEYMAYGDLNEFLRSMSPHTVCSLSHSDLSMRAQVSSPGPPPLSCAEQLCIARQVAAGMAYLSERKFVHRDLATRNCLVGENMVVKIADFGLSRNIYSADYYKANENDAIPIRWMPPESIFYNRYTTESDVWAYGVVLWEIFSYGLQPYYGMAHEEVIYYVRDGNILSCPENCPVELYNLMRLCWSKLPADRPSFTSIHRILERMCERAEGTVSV

MST1R (from UniProt Q04912)
relative phosphorylation
Details	at +1	at +2	at +3	at +4	at +5	at -1	at -2	at -3	at -4	at -5
A fixed	0.871	0.845	0.68	0.963	1.06	0.744	0.976	0.932	1.03	0.978
D fixed	0.356	0.803	0.406	0.696	0.865	1.38	1.03	1.2	1.02	0.894
E fixed	0.55	0.767	0.281	0.622	0.874	1.01	0.864	1.06	0.966	0.851
F fixed	1.62	0.938	1.28	1.1	0.582	1.06	0.794	0.996	1.1	1.1
G fixed	0.645	0.821	0.766	1.17	1.25	0.665	1.38	1.21	1.25	1.13
H fixed	1.3	0.906	0.968	1.11	1.03	1.12	0.938	0.991	0.847	0.989
I fixed	1.51	1	2.14	0.923	0.473	1.36	0.957	0.801	0.85	0.932
K fixed	0.618	1.14	0.612	0.921	1.66	0.806	1.04	1	1.08	1.13
L fixed	1.32	1.15	1.67	0.924	0.626	1.29	0.903	0.937	1.04	1.07
M fixed	1.15	0.99	1.32	1.1	0.715	0.904	0.685	0.845	0.941	0.974
N fixed	0.594	1.13	0.492	0.82	1.23	1.25	0.978	1.01	0.796	0.864
P fixed	0.672	0.967	1.17	1.03	1.57	0.768	1.31	1.09	1.16	1.07
Q fixed	1.04	0.996	0.577	1.04	1.16	0.977	1.07	1.01	0.996	0.946
R fixed	0.922	1.3	0.862	1.34	1.75	0.757	1.28	1.18	1.09	1.18
S fixed	0.901	0.95	0.712	0.897	1.25	0.777	1.23	1.2	0.87	0.974
T fixed	0.876	0.792	0.623	0.85	1.17	0.899	0.973	0.91	0.821	0.884
V fixed	1.46	1.04	1.36	0.901	0.579	1.15	1.02	0.728	0.89	0.939
W fixed	1.36	1.2	1.41	1.34	0.575	0.762	0.77	0.997	0.953	0.953
pThr fixed	0.564	0.981	0.277	0.414	0.638	1.16	1.02	0.95	0.758	0.795
pTyr fixed	1.73	1.79	0.651	1.11	0.728	2.14	1.1	1.13	1.04	0.922

MUSK, construct: aa529-end, human (from UniProt O15146)
relative phosphorylation
Details	at +1	at +2	at +3	at +4	at +5	at -1	at -2	at -3	at -4	at -5
A fixed	1.21	0.711	0.689	0.799	0.969	0.559	0.817	0.963	1.25	1.09
D fixed	0.341	0.179	0.233	0.665	0.832	0.932	0.856	1.09	0.763	0.981
E fixed	0.619	0.251	0.156	0.481	0.784	2.14	1.44	1	0.919	0.766
F fixed	1.9	1.59	1.49	1.06	1.01	1.33	0.962	1.16	1.38	1.33
G fixed	0.835	0.386	0.886	0.94	1.08	0.401	1.06	0.981	1.14	1.06
H fixed	1.68	0.852	0.868	1.2	1.07	1.51	1.14	1.04	0.977	0.891
I fixed	1.31	1.54	1.59	0.808	0.781	1.5	1.02	0.87	1.02	0.946
K fixed	0.317	1.58	0.99	1.53	1.15	0.248	0.779	0.855	0.822	0.916
L fixed	0.926	1.12	1.09	0.907	1.02	1.62	1.09	1.04	1.13	1.17
M fixed	1.58	0.918	1.24	1.1	0.964	0.939	0.914	1.15	0.996	1.13
N fixed	0.41	0.774	0.62	0.848	0.935	2.14	1.35	1.09	0.877	1.04
P fixed	0.151	0.654	1.2	0.974	1.04	0.476	0.672	0.865	1.09	1.01
Q fixed	0.768	0.847	0.48	1.11	0.786	0.782	1.04	0.881	1.06	1.11
R fixed	0.541	2.19	2.06	1.57	1.66	0.255	0.976	0.866	0.972	0.892
S fixed	0.58	0.819	0.591	1.04	0.858	0.437	1.05	1.09	0.721	0.804
T fixed	0.563	0.862	0.843	0.771	0.987	0.465	1.03	0.936	0.627	0.663
V fixed	1.55	1.69	1.48	0.86	0.836	1.19	0.921	0.874	0.881	0.962
W fixed	2.72	1.05	1.49	1.36	1.24	1.06	0.892	1.25	1.39	1.25
pThr fixed	1.15	0.475	0.215	0.619	0.435	1.32	0.741	0.718	0.587	0.773
pTyr fixed	11.8	1.11	0.592	0.73	0.832	5.58	1.07	1.32	0.963	1.02
